Values joined by “and” are separate entries in the source; they are usually repeats but may differ in a detail not shown here. Equal values may be shown once.
B1: Siglec-9-Fc R120A (protein, UniProt Q9Y336 18-348, looked up, variant R120A)
extracellular domain: QTSKLLTMQSSVTVQEGLCVHVPCSFSYPSHGWIYPGPVVHGYWFREGANTDQDAPVATNNPARAVWEETRDRFHLLGDPHTKNCTLSIRDARRSDAGRYFFAMEKGSIKWNYKHHRLSVNVTALTHRPNILIPGTLESGCPQNLTCSVPWACEQGTPPMISWIGTSVSPLDPSTTRSSVLTLIPQPQDHGTSLTCQVTFPGASVTTNKTVHLNVSYPPQNLTMTVFQGDGTVSTVLGNGSSLSLPEGQSLRLVCAVDAVDSNPPARLSLSWRGLTLCPSQPSNPGVLELPWVHLRDAAEFTCRAQNPLGSQQVYLNVSLQSKATSGVTQG
modifications: extracellular domain fused to human IgG1 Fc
B2: Sig-3 R119A: CD33-Fc essential arginine mutant (protein, UniProt P20138 18-259, looked up, variant R119A)
extracellular domain: DPNFWLQVQESVTVQEGLCVLVPCTFFHPIPYYDKNSPVHGYWFREGAIISRDSPVATNKLDQEVQEETQGRFRLLGDPSRNNCSLSIVDARRRDNGSYFFAMERGSTKYSYKSPQLSVHVTDLTHRPKILIPGTLEPGHSKNLTCSVSWACEQGTPPIFSWLSAAPTSLGPRTTHSSVLIITPRPQDHGTNLTCQVKFAGAGVTTERTIQLNVTYVPQNPTTGIFPGDGSGKQETRAGVVH
modifications: extracellular domain fused to human IgG1 Fc
notes: CD33-Fc essential arginine mutant
B3: Sig-16 R120A: Siglec-16-Fc essential arginine mutant (protein, UniProt A6NMB1 17-434, looked up, variant R120A)
extracellular domain: NKDPSYSLQVQRQVPVPEGLCVIVSCNLSYPRDGWDESTAAYGYWFKGRTSPKTGAPVATNNQSREVAMSTRDRFQLTGDPGKGSCSLVIRDAQREDEAWYFFAVERGSRVRHSFLSNAFFLKVTALTQKPDVYIPETLEPGQPVTVICVFNWAFKKCPAPSFSWTGAALSPRRTRPSTSHFSVLSFTPSPQDHDTDLTCHVDFSRKGVSAQRTVRLRVASLELQGNVIYLEVQKGQFLRLLCAADSQPPATLSWVLQDRVLSSSHPWGPRTLGLELPGVKAGDSGRYTCRAENRLGSQQRALDLSVQYPPENLRVMVSQANRTVLENLRNGTSLRVLEGQSLRLVCVTHSSPPARLSWTWGEQTVGPSQPSDPGVLQLPRVQMEHEGEFTCHARHPLGSQRVSLSFSVHCKSGPMTG
modifications: extracellular domain fused to human IgG1 Fc
notes: Siglec-16-Fc essential arginine mutant

Assays:
[1] = test system: peripheral blood immune cells; experiment: Comparison of 2-step and pre-complexed Siglec-Fc binding, flow cytometry (Figure 3e-g); type: cell-based, human; settings: Figure 3g
U937 cells = experiment: Flow cytometry, Siglec-Fc pre-complexed with Strep-Tactin, streptavidin or anti-human IgG1; type: cell-based; settings: U937; Strep-Tactin-AF647; replicates, Fig. 2
Experimental: (§1) Strep-Tactin-AF647 (0.55 μg/mL, 0.57 pmol), streptavidin (Biolegend), or anti-human igG1 (Biolegend) was added to Siglec supernatant (50 μL) or purified Siglec and allowed to sit at 4 °C for 15 min. After, the pre-complexed solution was added to cells in a 96-well U-bottom plate for 30 min at 4 °C. After, 200 μL of flow buffer (HBSS, 0.1% BSA, 5 mM EDTA) was added and the plate was spun down at 300 rcf for 5 min. The cells were resuspended in 200 μL of flow buffer and processed through the flow cytometer.
(§2) Flow cytometry was performed on a BD LSRFortessa™ X-20 cell analyzer using BD FACSDiva Software Version 8.0.1 and data was processed using FlowJo LLC. Version 9.9.6 and Graphpad Prism 8. The live, single cell populations were gated out with two gates to obtain the median fluorescence intensity (MFI), which indicates binding of the Siglec-Fc-secondary complex to the cell surface. Control cells that were incubated with Strep-Tactin-AF647 (0.55 μg/mL, 0.57 pmol) was used to determine the baseline fluorescence. Number of cells (# cells) plotted indicates percentage of max (% max).

A549 cells = experiment: Flow cytometry, pre-complexed Siglec-Fc binding; type: cell-based; settings: Strep-Tactin-AF647, replicates
Experimental: as §1, §2

HEK293T cells = experiment: Flow cytometry, pre-complexed Siglec-Fc binding; type: cell-based; settings: HEK; Strep-Tactin-AF647; replicates
Experimental: as §1, §2

HuH7 cells = experiment: Flow cytometry, pre-complexed Siglec-Fc binding; type: cell-based; settings: Strep-Tactin-AF647, replicates
Experimental: as §1, §2

Jurkat cells = experiment: Flow cytometry, pre-complexed Siglec-Fc binding; type: cell-based; settings: Strep-Tactin-AF647, replicates
Experimental: as §1, §2

K562 cells = experiment: Flow cytometry, pre-complexed Siglec-Fc binding; type: cell-based; settings: Strep-Tactin-AF647, replicates
Experimental: as §1, §2

BT549 = experiment: Flow cytometry, pre-complexed Siglec-Fc binding to breast cancer cell line; type: cell-based; settings: Strep-Tactin-AF647, replicates
Experimental: as §1, §2

HS578T = experiment: as above; type: cell-based; settings: Strep-Tactin-AF647, replicates
Experimental: as §1, §2

MCF7 = experiment: as above; type: cell-based; settings: Strep-Tactin-AF647, replicates
Experimental: as §1, §2

MDA-MB-231 = experiment: as above; type: cell-based; settings: Strep-Tactin-AF647, replicates
Experimental: as §1, §2

MDA-MB-468 = experiment: as above; type: cell-based; settings: Strep-Tactin-AF647, replicates
Experimental: as §1, §2

T47D = experiment: as above; type: cell-based; settings: Strep-Tactin-AF647, replicates
Experimental: as §1, §2

ZR-75-1 = experiment: as above; type: cell-based; settings: Strep-Tactin-AF647, replicates
Experimental: as §1, §2

basophils (CCR3+) = experiment: Siglec ligands on peripheral blood immune cells, flow cytometry; type: cell-based, human; design: key: median fluorescence intensity (MFI) of Siglec-Fc complex binding; settings: replicate values
Experimental: (§3) Siglec supernatant (50 μL) or purified Siglec was incubated with cells in a 96-well U-bottom plate for 30 min at 4 °C. Following the incubation, 200 μL of flow buffer (HBSS, 0.1% BSA, 5 mM EDTA) was added and the plate was spun down at 300 rcf for 5 min. Strep-Tactin-AF647 (0.55 μg/mL, 50 μL, 0.57 pmol), streptavidin (Biolegend), or anti-human IgG1 (Biolegend) was added to the cells and incubated for 30 min at 4 °C. After, 200 μL of flow buffer (HBSS, 0.1% BSA, 5 mM EDTA) was added and the plate was spun down at 300 rcf for 5 min. The cells were resuspended in 200 μL of flow buffer and processed through the flow cytometer.
as §1
(§4) For human splenocytes, the sample was homogenized in media through a 40 µm filter (Corning) under sterile conditions. Samples were centrifuged at 300 rcf for 5 min. The resulting pellet from the spleen sample and whole human blood were treated with RBC lysis buffer (7 min) and centrifuged at 300 rcf and the RBC lysis was repeated twice more until no RBC remained in the pellet. Samples were treated with human Fc-receptor blocking agent (TruStain FX, Biolegend) in flow buffer (HBSS, 0.1% BSA, 5 mM EDTA). For analysis, the following cocktail was used: hSig8 (PerCP/Cy5.5, clone 7C9, Biolegend cat. no. 347108, 1:200), hCD123 (PE/Cy7, clone 6H6, Biolegend cat. no. 306010, 1:200), hCD19 (PE, clone SJ25C1, Biolegend cat. no. 363004, 1:200), hCD3 (FITC, BD Pharmingen cat. no. 555332, 1:50), hCD14 (BV605, clone M5E2, BD Horizon cat. no. 564056, 1:200), hCD15 (BUV395, clone HI98, BD Horizon cat. no. 563872, 1:200), hCD56 (BV510, clone NCAM16.2, BD Horizon cat. no. 563041, 1:200). For human peripheral blood samples, we additionally used hHLA-DR (APC-Cy7, clone L243, Biolegend cat. no. 307618, 1:200). Pre-complexed Siglec-Fc/Strep-Tactin-AF647 (described above) was added to the antibody cocktail, added to cells, and allowed to stain at 4 °C for 45 min. The cells were then centrifuged at 300 rcf for 5 min and resuspended in flow buffer containing 1 µg/mL propidium iodide prior to analysis by flow cytometry.
as §2

eosinophils (Siglec-8+) = experiment: as above; type: cell-based, human; design: key: median fluorescence intensity (MFI) of Siglec-Fc complex binding; settings: replicate values
Experimental: as §3, §1, §4, §2

monocytes (CD14+) = experiment: as above; type: cell-based, human; design: key: median fluorescence intensity (MFI) of Siglec-Fc complex binding; settings: replicate values
Experimental: as §3, §1, §4, §2

B-cells (CD19+) = experiment: as above; type: cell-based, human; settings: replicate values
Experimental: as §4, §2

NK cells (CD56+) = experiment: as above; type: cell-based, human; settings: replicate values
Experimental: as §4, §2

T-cells (CD3+) = experiment: as above; type: cell-based, human; settings: replicate values
Experimental: as §4, §2

cDCs (CD123dim/HLA-DR+) = experiment: as above; type: cell-based, human; settings: cDC; replicate values
Experimental: as §4, §2

neutrophils (CD15+) = experiment: as above; type: cell-based, human; settings: replicate values
Experimental: as §4, §2

pDCs (CD123high/HLA-DR+) = experiment: as above; type: cell-based, human; settings: pDC; replicate values
Experimental: as §4, §2

[2] = test system: neutrophils (CD15+), human splenocytes; experiment: Siglec-Fc (CD22-Fc V1/V2, with or without Fc receptor block) binding to splenocytes, flow cytometry; type: cell-based; settings: Suppl Fig 12; three replicate columns
Experimental: as §4, §2

[3] = test system: B-cells (CD19+), human splenocytes; experiment: Siglec-Fc binding to splenocytes, flow cytometry; type: cell-based; settings: Suppl Fig 12; three replicate columns
Experimental: as §4, §2

[4] = test system: NK cells (CD56+), human splenocytes; experiment: Siglec-Fc binding to splenocytes, flow cytometry; type: cell-based; settings: Suppl Fig 12; three replicate columns
Experimental: as §4, §2

[5] = test system: T-cells (CD3+), human splenocytes; experiment: Siglec-Fc binding to splenocytes, flow cytometry; type: cell-based; settings: Suppl Fig 12; three replicate columns
Experimental: as §4, §2

[6] = test system: monocytes (CD14+), human splenocytes; experiment: Siglec-Fc binding to splenocytes, flow cytometry; type: cell-based; settings: Suppl Fig 12; three replicate columns
Experimental: as §4, §2

Row | Molecule | binding of pre-complexed Siglec-Fc (MFI) (U937 cells) | binding of pre-complexed Siglec-Fc (MFI) (A549 cells) | binding of pre-complexed Siglec-Fc (MFI) (HEK293T cells) | binding of pre-complexed Siglec-Fc (MFI) (HuH7 cells) | binding of pre-complexed Siglec-Fc (MFI) (Jurkat cells) | binding of pre-complexed Siglec-Fc (MFI) (K562 cells) | binding of pre-complexed Siglec-Fc (MFI) (BT549) | binding of pre-complexed Siglec-Fc (MFI) (HS578T) | binding of pre-complexed Siglec-Fc (MFI) (MCF7) | binding of pre-complexed Siglec-Fc (MFI) (MDA-MB-231) | binding of pre-complexed Siglec-Fc (MFI) (MDA-MB-468) | binding of pre-complexed Siglec-Fc (MFI) (T47D) | binding of pre-complexed Siglec-Fc (MFI) (ZR-75-1) | Siglec-Fc binding (Figure 3d) (basophils (CCR3+)) | Siglec-Fc binding (Figure 3d) (eosinophils (Siglec-8+)) | Siglec-Fc binding (Figure 3d) (monocytes (CD14+)) | Siglec-Fc binding (Figure 3d) (B-cells (CD19+)) | Siglec-Fc binding (Figure 3d) (NK cells (CD56+)) | Siglec-Fc binding (Figure 3d) (T-cells (CD3+)) | Siglec-Fc binding (Figure 3d) (cDCs (CD123dim/HLA-DR+)) | other results
1 | B1 |  |  |  |  |  |  |  |  |  |  |  |  |  |  |  |  |  |  |  |  | Siglec-9-Fc Binding ([1]; 2-Step): 43.3 and 45.1 and 40.9; Siglec-9-Fc Binding ([1]; Precomplex): 42 and 53.2 and 47.5
2 | B2 | 103 and 139 and 125 | 196 and 195 and 188 | 86.5 and 94.1 and 92.2 | 85.3 and 88.8 and 87.9 | 101 and 105 and 109 | 73.5 and 79.6 and 81.1 | 140 and 148 and 151 | 127 (2×) and 130 | 107 and 105 and 113 | 133 (2×) and 138 | 85.3 and 88 and 88.8 | 88.8 and 95.2 (2×) | 212 and 223 and 240 | 73.2 and 10.3 and 39.8 | 15.4 and -50.1 and 11.6 | 74.5 and -10.3 and 64.2 | 147 and 5.13 and 27 | 3.81 and -14.1 and 12.8 | 11.6 and -14.1 and 8.98 | 28.2 and -2.85 and 34.7 | Siglec-Fc binding (Figure 3d) (neutrophils (CD15+)): 27 and -33.4 and 14.1; Siglec-Fc binding (Figure 3d) (pDCs (CD123high/HLA-DR+)): 43.6 and 23.1 and 53.9; Binding, Neutrophils [2]: 20.7 and 30.4 and 24.9; Binding, B-cells [3]: 24.9 and 27 and 31.3; Binding, NK [4]: 16.9 and 14.2 and 13.6; Binding, T-cells [5]: 9.87 and 7.5 and 8.87; Binding, Monocytes [6]: 22.5 and 51.6 and 43.8
3 | B3 | 90.2 and 97.8 and 102 | 103 (2×) and 108 | 70.6 and 77.5 and 78.9 | 131 and 130 and 128 | 74.2 and 80.5 and 83 | 80.4 and 84.2 and 88.7 | 124 and 130 and 128 | 116 and 119 and 110 | 102 | 111 and 118 and 117 | 81.8 and 84.5 and 83.4 | 75.5 and 80.8 and 81.8 | 171 and 183 and 144 | 82.2 and 51.9 and 97 | 41.1 and 56.9 and 14.4 | 46.2 and 59 and 12.8 | 32.1 and 52.6 and -2.57 | 38.5 and 45.7 and 13.8 | 25.7 and 12.5 and 15.5 | 66.8 and -25.7 and 30.8 | Siglec-Fc binding (Figure 3d) (neutrophils (CD15+)): 44.9 and 39.4 and 8.1; Siglec-Fc binding (Figure 3d) (pDCs (CD123high/HLA-DR+)): 74.5 and -8.98 and 57.8; Binding, Neutrophils [2]: 16.1 and 20.7 and 14.4; Binding, B-cells [3]: 9.76 and 13.2 and 11.5; Binding, NK [4]: -1.72 and -0.57 and 2.3; Binding, T-cells [5]: -5.17 and -4.02 and -2.3; Binding, Monocytes [6]: 17.2 and 15.5 and 13.2

— paper PMC7547722, “A versatile soluble siglec scaffold for sensitive and quantitative detection of glycan ligands” (Nature Communications, 2020)
